According to the supplement of paper PMC10567573:

B1: NP_015628.1 (parent)
chain: EQRNSRWNTVLRAVKAKTHHLEP

Variants of: B1
Experiment: protein stability index of a GFP-peptide fusion (GPS, HEK-293T) (PSI 1-6); higher = more stable
Settings: c terminus: native
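Further: lentivirally expressed fusion library, cells FACS-sorted into six equal-sized GFP/DsRed ratio bins, PSI computed from sequencing read fractions per bin weighted by bin number.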

| Variant | protein stability index |
| --- | --- |
| N4C | 2.73 |
| N4D | 3.22 |
| N4E | 3.37 |
| N4F | 3.17 |
| N4G | 3.71 |
| N4H | 2.48 |
| N4I | 2.94 |
| N4K | 2.67 |
| N4L | 2.87 |
| N4M | 2.94 |
| N4P | 2.67 |
| N4Q | 3.1 |
| N4R | 2.96 |
| N4S | 3.05 |
| N4T | 3.23 |
| N4V | 2.96 |
| N4W | 2.4 |
| N4Y | 3.16 |
| S5A | 2.67 |
| S5C | 2.46 |
| S5D | 2.96 |
| S5E | 2.91 |
| S5F | 2.61 |
| S5G | 3.32 |

| Variant | protein stability index |
| --- | --- |
| S5H | 2.62 |
| S5K | 2.28 |
| S5L | 2.48 |
| S5M | 2.4 |
| S5P | 2.78 |
| S5Q | 2.67 |
| S5R | 2.42 |
| S5T | 2.93 |
| S5V | 2.43 |
| S5W | 2.46 |
| S5Y | 2.38 |
| R6A | 2.85 |
| R6C | 2.45 |
| R6D | 2.7 |
| R6E | 3.39 |
| R6F | 3.03 |
| R6G | 3.11 |
| R6H | 3.45 |
| R6I | 3.4 |
| R6K | 2.67 |
| R6L | 2.97 |
| R6M | 2.72 |
| R6N | 2.67 |
| R6P | 2.51 |

| Variant | protein stability index |
| --- | --- |
| R6Q | 2.62 |
| R6S | 2.4 |
| R6T | 2.48 |
| R6V | 3.23 |
| R6W | 2.07 |
| R6Y | 2.94 |
| W7A | 5.18 |
| W7C | 5.2 |
| W7D | 5.12 |
| W7F | 4.71 |
| W7G | 5.71 |
| W7H | 5.21 |
| W7K | 5.46 |
| W7L | 4.66 |
| W7M | 5.33 |
| W7N | 4.83 |
| W7R | 5.19 |
| W7S | 5.32 |
| W7T | 5.14 |
| W7V | 4.88 |
| N8A | 1.94 |
| N8C | 2.01 |
| N8D | 2.52 |
| N8E | 1.92 |

| Variant | protein stability index |
| --- | --- |
| N8F | 2.8 |
| N8G | 2.49 |
| N8H | 2.64 |
| N8I | 2.6 |
| N8L | 2.29 |
| N8M | 2.15 |
| N8P | 3.65 |
| N8Q | 2.06 |
| N8R | 2.53 |
| N8S | 2.28 |
| N8T | 2.16 |
| N8V | 3 |
| N8W | 2.78 |
| N8Y | 2.61 |
| T9A | 3.31 |
| T9C | 3 |
| T9D | 2.29 |
| T9E | 2.38 |
| T9F | 1.99 |
| T9G | 3.94 |
| T9H | 2.38 |
| T9I | 3.02 |
| T9L | 2.91 |
| T9M | 3.04 |

| Variant | protein stability index |
| --- | --- |
| T9N | 3.3 |
| T9P | 4.6 |
| T9Q | 3 |
| T9R | 4.1 |
| T9S | 3.31 |
| T9V | 2.74 |
| T9W | 2.3 |
| T9Y | 2.23 |
| V10A | 3.52 |
| V10C | 3.99 |
| V10D | 4.65 |
| V10E | 3.92 |
| V10F | 2.74 |
| V10H | 2.81 |
| V10I | 2.92 |
| V10K | 3.15 |
| V10M | 2.89 |
| V10N | 3.76 |
| V10P | 4.13 |
| V10Q | 3.25 |
| V10R | 2.77 |
| V10S | 3.63 |
| V10T | 3.15 |
| V10W | 2.78 |

| Variant | protein stability index |
| --- | --- |
| V10Y | 2.53 |
| L11A | 3.95 |
| L11C | 2.47 |
| L11D | 4.52 |
| L11E | 4.36 |
| L11F | 3.9 |
| L11G | 4.32 |
| L11H | 4.49 |
| L11I | 2.51 |
| L11K | 4.86 |
| L11M | 3.19 |
| L11N | 4.51 |
| L11P | 5.12 |
| L11Q | 4.63 |
| L11R | 5.15 |
| L11S | 4.1 |
| L11T | 3.12 |
| L11V | 2.5 |
| L11W | 3.69 |
| L11Y | 3.5 |
| R12A | 2.77 |
| R12C | 2.74 |
| R12D | 2.44 |
| R12E | 2.79 |

| Variant | protein stability index |
| --- | --- |
| R12F | 2.41 |
| R12G | 2.78 |
| R12H | 2.98 |
| R12I | 2.46 |
| R12K | 2.97 |
| R12L | 2.76 |
| R12M | 2.8 |
| R12N | 3.21 |
| R12P | 3.05 |
| R12Q | 2.71 |
| R12S | 2.57 |
| R12T | 3.07 |
| R12V | 2.47 |
| R12W | 2.67 |
| R12Y | 2.5 |
| A13C | 3.08 |
| A13D | 2.78 |
| A13E | 2.24 |
| A13F | 2.52 |
| A13G | 2.89 |
| A13H | 2.94 |
| A13I | 2.66 |
| A13K | 2.87 |
